# Source: the RNAGym collection of RNA variant scans (doi:10.1073/pnas.2313332121)
# This sample holds only a part of the variants without activity.
# B1: TPR 5TU (parent)
# chain: GGAUCUUCUCGAUCUAACAAAAAAGACAAAUCUGCCACAAAGCUUGAGAGCAUCUUCGGAUGCAGAGGCGGCAGCCUUCGGUGGCGCGAUAGCGCCAACGUUCUCAACUAUGACACGCAAAACGCGUGCUCCGUUGAAUGGAGUUUAUCAUG
# Variants of: B1
# Assay: polymerase ribozyme fitness, log enrichment relative to wild type (log ratio); higher = more active; in vitro selection for triplet polymerase activity
# How it was run: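 Mutant libraries of each subunit of a heterodimeric triplet polymerase ribozyme were built by PCR and transcribed. Each library went through one round of in vitro selection in triplicate: annealing with biotinylated primer, partner subunit and triplets, frozen incubation at −7 °C, gel excision of extended constructs, streptavidin-bead capture and RT-PCR. Input and output libraries were Illumina-sequenced; only genotypes with ≥10 input reads and ≥1 read per output were kept. Fitness is log2(genotype enrichment/wild-type enrichment), using inverse-variance-weighted replicate averages.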
row,Variant,polymerase ribozyme fitness (log ratio)
1,GGAUCUUCUCGAUCUAACAAAAAAGACAAAUCUGCCACAAAGCUUGAGAGCAUCUUCGGAUGCAGAGGCGGCAGCCUUCGGUGGCGCGAUAGCGUCAACGUUCUCAACUAUGACACGCAAAACGCGUGCUCCGUUGAAUGGAGUUGAUCAUG [C95U U146G],-1.04
2,GGAUCUUCUCGAUCUAACAAAAAAGACAAAUCUGCCACAAAGCUUGAGAGCAUCUUCGGAUGCAGAGGCGGCAGCCUUCGGUGGCGCGAUAGCGUCAACGUUCUCAACUAUGACACGCGAAACGCGUGCUCCGUUGAAUGGAGUUUAUCAUG [C95U A119G],0.353
3,GGAUCUUCUCGAUCUAACAAAAAAGACAAAUCUGCCACAAAGCUUGAGAGCAUCUUCGGAUGCAGAGGCGGCAGCCUUCGGUGGCGCGAUAGCGUCAACGUUCUCAACUAUGACACGCUAAACGCGUGCUCCGUUGAAUGGAGUUUAUCAUG [C95U A119U],-0.544
4,GGAUCUUCUCGAUCUAACAAAAAAGACAAAUCUGCCACAAAGCUUGAGAGCAUCUUCGGAUGCAGAGGCGGCAGCCUUCGGUGGCGCGAUAGCGUUAACGUUCUCAACUAUGACACGUAAAACGAGUGGUCCGUUGAAUGGAGUUUAUCAUG [C95U C96U C118U C125A C129G],≤ -4.2
5,GGAUCUUCUCGAUCUAACAAAAAAGACAAAUCUGCCACAAAGCUUGAGAGCAUCUUCGGAUGCAGAGGCGGCAGCCUUCGGUGGCGCGAUAGCGUAAACGUUCUCAACUAUGACACGCAAAACGCGUGCUCCGUUGAAUGGAGUUUAUCAUG [C95U C96A],-1.02
6,GGAUCUUCUCGAUCUAACAAAAAAGACAAAUCUGCCACAAAGCUUGAGAGCAUCUUCGGAUGCAGAGGCGGCAGCCUUCGGUGGCGCGAUAGCUCCAACGUCCUCAACUAUGACACGCAAAACGCGUGCUCCGUUGAAUGGAGUUUAUCAUG [G94U U102C],-2.06
7,GGAUCUUCUCGAUCUAACAAAAAAGACAAAUCUGCCACAAAGCUUGAGAGCAUCUUCGGAUGCAGAGGCGGCAGCCUUCGGUGGCGCGAUAGCUCCAACGUUCUCAACUAUGACACGCAAAACGCGUGCUCCGUUGAAUUGAGUUUAUCAUG [G94U G140U],-3.84
8,GGAUCUUCUCGAUCUAACAAAAAAGACAAAUCUGCCACAAAGCUUGAGAGCAUCUUCGGAUGCAGAGGCGGCAGCCUUCGGUGGCGCGAUAGCGUCAACGUUCUCAACUAUGACACGCAAAACGCGUGCUCCGUUGAAUGUAGUUUAUCAUG [C95U G141U],0.762
9,GGAUCUUCUCGAUCUAACAAAAAAGACAAAUCUGCCACAAAGCUUGAGAGCAUCUUCGGAUGCAGAGGCGGCAGCCUUCGGUGGCGCGAUAGCUCCAACGUUCUCAACUAUGACACGCAAAACGCGUGCUCCGUUGAAUGCAGGUUAUCAUG [G94U G141C U144G],-1.83
10,GGAUCUUCUCGAUCUAACAAAAAAGACAAAUCUGCCACAAAGCUUGAGAGCAUCUUCGGAUGCAGAGGCGGCAGCCUUCGGUGGCGCGAUAGCUCCAACGUUCUCAACUAUGACACGCAAAACGCGUGCUCCGUUGAAUGGAGUUUAUCAAG [G94U U151A],≤ -4.2
11,GGAUCUUCUCGAUCUAACAAAAAAGACAAAUCUGCCACAAAGCUUGAGAGCAUCUUCGGAUGCAGAGGCGGCAGCCUUCGGUGGCGCGAUAGCGUCAACGUUCGCAACUAUGACACGCAAAACGCGUGCUCCGUUGAAUGGAGUUUAUCAUG [C95U U104G],-2.11
12,GGAUCUUCUCGAUCUAACAAAAAAGACAAAUCUGCCACAAAGCUUGAGAGCAUCUUCGGAUGCAGAGGCGGCAGCCUUCGGUGGCGCGAUAGCGUCUAUGUUCUCAACUAUGACACGCAAAACGCGUGCUCCUUUGAAUGGAGUUUAUCGUG [C95U A97U C99U G133U A150G],≤ -4.2
13,GGAUCUUCUCGAUCUAACAAAAAAGACAAAUCUGCCACAAAGCUUGAGAGCAUCUUCGGAUGCAGAGGCGGCAGCCUUCGGUGGCGCGAUAGCGUCAACGUUCUCAACUAUGACAGGCAAAACGCGUGCUCCUUUGAAUGGAGUUUAUCAUG [C95U C116G G133U],≤ -4.2
14,GGAUCUUCUCGAUCUAACAAAAAAGACAAAUCUGCCACAAAGCUUGAGAGCAUCUUCGGAUGCAGAGGCGGCAGCCUUCGGUGGCGCGAUAGCUCCAACGUUCUCAACUAUGACACGCAAAACGCGUGCUCCGUUGAAUGGAGUUUACCAUG [G94U U148C],-2.92
15,GGAUCUUCUCGAUCUAACAAAAAAGACAAAUCUGCCACAAAGCUUGAGAGCAUCUUCGGAUGCAGAGGCGGCAGCCUUCGGUGGCGCGAUAGCGCAAUCGUUGUCAACAAUGACACGCAAUACGCGUGCUCCGUUGAAUGGAGUUUAUCAUG [C96A A98U C103G U109A A121U],≤ -4.2
16,GGAUCUUCUCGAUCUAACAAAAAAGACAAAUCUGCCACAAAGCUUGAGAGCAUCUUCGGAUGCAGAGGCGGCAGCCUUCGGUGGCGCGAUAGCGCAAACGUUCUCAACUAUGACCCGCAAAACGCGUGCUCCGUUGAAUGGAGUUUAUCAUG [C96A A115C],-0.888
17,GGAUCUUCUCGAUCUAACAAAAAAGACAAAUCUGCCACAAAGCUUGAGAGCAUCUUCGGAUGCAGAGGCGGCAGCCUUCGGUGGCGCGAUAGCGCAAACGUUCUCAACUAUGACUCGCAAAACGCGUGCUCCGUUGAAUGGAGUUUAUCAUG [C96A A115U],-2.29
18,GGAUCUUCUCGAUCUAACAAAAAAGACAAAUCUGCCACAAAGCUUGAGAGCAUCUUCGGAUGCAGAGGCGGCAGCCUUCGGUGGCGCGAUAGCGUCAACGUUCUCAACUAUGACAGGCAAAACGCGUGCUCCGUAGAAUGGAGUUUAUCAUG [C95U C116G U135A],-2.67
19,GGAUCUUCUCGAUCUAACAAAAAAGACAAAUCUGCCACAAAGCUUGAGAGCAUCUUCGGAUGCAGAGGCGGCAGCCUUCGGUGGCGCGAUAGCGUCAACGUUCUCAACUAUGACACGCAAAACGCGUGCUCAGUUGAAUGGAGUUUAUCAUG [C95U C132A],-2.32
